Experimental data: PMC5026484
pKd: −log10 of the molar value.

Columns and labels:
[1] = biological target: bMERB domain (Rab binding domain) of Mical-cL, residues 534-683 (human) (UniProt O94851); experiment: ITC; iTC200, 25°C; 400 µM Rab titrated into 20–40 µM bMERB domain in the cell; 20 mM Hepes pH 7.5, 50 mM NaCl, 2 mM MgCl2, 1 mM TCEP
Slac2-a/melanophilin = Slac2-a/melanophilin (UniProt Q91V27); details: cited from earlier work
Slp2-a = Slp2-a (UniProt Q99N50); details: cited from earlier work
Chain of Slp2-a (Q99N50 whole entry): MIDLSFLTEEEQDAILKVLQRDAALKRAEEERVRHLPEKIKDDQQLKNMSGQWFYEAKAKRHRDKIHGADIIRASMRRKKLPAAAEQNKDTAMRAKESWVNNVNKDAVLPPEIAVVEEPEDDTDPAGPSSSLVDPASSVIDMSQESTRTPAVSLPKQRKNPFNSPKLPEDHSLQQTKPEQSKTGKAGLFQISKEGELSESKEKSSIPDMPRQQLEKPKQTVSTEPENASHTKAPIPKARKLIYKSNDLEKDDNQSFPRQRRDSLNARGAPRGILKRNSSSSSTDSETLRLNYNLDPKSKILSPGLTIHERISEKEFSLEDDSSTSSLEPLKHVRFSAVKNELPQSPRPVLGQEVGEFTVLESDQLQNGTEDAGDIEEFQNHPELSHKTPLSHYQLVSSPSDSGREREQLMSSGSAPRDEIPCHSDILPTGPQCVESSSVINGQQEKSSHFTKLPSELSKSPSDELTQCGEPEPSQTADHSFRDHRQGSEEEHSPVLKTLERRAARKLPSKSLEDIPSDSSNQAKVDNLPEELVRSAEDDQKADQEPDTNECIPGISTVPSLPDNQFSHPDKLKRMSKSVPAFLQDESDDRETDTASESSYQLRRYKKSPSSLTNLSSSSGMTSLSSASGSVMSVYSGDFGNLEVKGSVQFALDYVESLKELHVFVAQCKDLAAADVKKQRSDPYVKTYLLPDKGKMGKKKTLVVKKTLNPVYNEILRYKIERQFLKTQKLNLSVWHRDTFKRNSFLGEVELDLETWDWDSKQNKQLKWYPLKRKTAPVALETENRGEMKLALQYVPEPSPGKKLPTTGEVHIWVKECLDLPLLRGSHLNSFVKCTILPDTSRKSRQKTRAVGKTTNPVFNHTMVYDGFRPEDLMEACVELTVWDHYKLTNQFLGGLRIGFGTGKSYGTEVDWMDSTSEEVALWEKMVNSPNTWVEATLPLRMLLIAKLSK

Chain of Rab27 (Q9ERI2 2-221): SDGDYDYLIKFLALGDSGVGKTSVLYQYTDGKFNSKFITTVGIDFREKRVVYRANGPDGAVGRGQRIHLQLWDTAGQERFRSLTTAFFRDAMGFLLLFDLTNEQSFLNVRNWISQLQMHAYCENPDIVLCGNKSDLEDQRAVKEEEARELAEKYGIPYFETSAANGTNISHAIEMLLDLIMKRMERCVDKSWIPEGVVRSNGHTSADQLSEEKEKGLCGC
Chain of bMERB domain (Rab binding domain) of Mical-cL, residues 534-683 (human) (O94851 1796-1945): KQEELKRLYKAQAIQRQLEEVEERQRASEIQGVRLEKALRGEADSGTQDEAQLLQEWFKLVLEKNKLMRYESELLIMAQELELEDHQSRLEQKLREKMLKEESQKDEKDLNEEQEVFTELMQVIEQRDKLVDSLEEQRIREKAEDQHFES
Chain of Slac2-a/melanophilin (Q91V27 whole entry): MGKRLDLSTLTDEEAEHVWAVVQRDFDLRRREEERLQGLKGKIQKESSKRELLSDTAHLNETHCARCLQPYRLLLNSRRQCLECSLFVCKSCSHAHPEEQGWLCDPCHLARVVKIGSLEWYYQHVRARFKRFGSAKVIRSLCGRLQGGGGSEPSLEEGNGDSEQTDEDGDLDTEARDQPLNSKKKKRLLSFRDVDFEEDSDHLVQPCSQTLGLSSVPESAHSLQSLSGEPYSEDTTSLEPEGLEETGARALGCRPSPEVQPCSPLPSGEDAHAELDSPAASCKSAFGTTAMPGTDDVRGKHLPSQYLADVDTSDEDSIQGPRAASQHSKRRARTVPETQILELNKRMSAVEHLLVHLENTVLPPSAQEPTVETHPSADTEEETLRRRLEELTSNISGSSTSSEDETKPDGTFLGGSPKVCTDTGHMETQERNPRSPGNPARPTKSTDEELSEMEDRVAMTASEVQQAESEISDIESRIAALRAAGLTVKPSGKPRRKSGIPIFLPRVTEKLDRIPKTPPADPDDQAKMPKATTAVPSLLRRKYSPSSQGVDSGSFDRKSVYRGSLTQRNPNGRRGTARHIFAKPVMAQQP

pKd [1] | Substance | pKd (Slac2-a/melanophilin) | pKd (Slp2-a)
5.96 | Rab1R8N, chimera of Rab1b with the 4 N-terminal residues of Rab8 (from UniProt Q9H0U4 5-201) (natural protein) |  | 
 | Rab27 (from UniProt Q9ERI2) | 6.95 | 7.87
